Source: patent publication EP2336188A1 (Sanofi-Aventis, dated 2011)
Where “and” joins values, the source holds several entries; their conditions need not be identical. Equal values may be shown once.

T1: human GPVI on platelets (human, UniProt Q9HCN6 21-339)
T1 sequence (looked up): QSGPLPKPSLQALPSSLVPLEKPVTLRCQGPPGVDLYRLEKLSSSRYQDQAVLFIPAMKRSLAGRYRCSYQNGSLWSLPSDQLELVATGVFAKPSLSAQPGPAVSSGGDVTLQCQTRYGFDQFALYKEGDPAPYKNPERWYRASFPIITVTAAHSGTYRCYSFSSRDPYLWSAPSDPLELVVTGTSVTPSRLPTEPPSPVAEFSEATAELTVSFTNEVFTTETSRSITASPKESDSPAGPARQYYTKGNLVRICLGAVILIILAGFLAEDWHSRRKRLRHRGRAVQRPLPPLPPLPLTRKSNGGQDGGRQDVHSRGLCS


These binders were tested against T1, human GPVI on platelets (assay: cell-based or functional assay).

| Binder | IC50 for inhibition of collagen induced platelet aggregation (human platelet rich plasma) |
| --- | --- |
| humanized anti-GPVI Fab VL1 with VH2 (Fab, V domains shown) VH: QVQLQESGPGLVAPSQSLSITCTVSGFSLTGYGVNWVRQPPSRGLEWLGMIWGDGSTDYQSTLKSRLSISKDNSKSQVFLKMNSLTTDDTARYYCARDLPMDYWGQGTSVTVSS VL: DIQMTQSPSSLSASVGGRVTITCKASQDINKYIAWYQHKPGKGPSLLIHYTSTLQPGVPSRFSGSGSGRDYSFSISNLQPEDIATYYCLQYANLLTFGGGTKLEIKR | 2.3 µg/mL and 2 µg/mL and 1.1 µg/mL |
| humanized anti-GPVI Fab VL1 with VH1 (Fab, V domains shown) VH: QVQLQESGPGLVAPSQSLSITCTVSGFSLTGYGVNWVRQPPSRGLEWLGMIWGDGSTDYQSTLKSRLSISKDTSKSQVFLKMNSLTTDDTARYYCARDLPMDYWGQGTSVTVSS VL: DIQMTQSPSSLSASVGGRVTITCKASQDINKYIAWYQHKPGKGPSLLIHYTSTLQPGVPSRFSGSGSGRDYSFSISNLQPEDIATYYCLQYANLLTFGGGTKLEIKR | 1.5 µg/mL and 2.3 µg/mL |
| humanized anti-GPVI Fab VL1 with VH3 (Fab, V domains shown) VH: EVQLLESGPGLVAPSGSLSITCTVSGFSLTGYGVNWVRQPPGKGLEWLGMIWGDGSTDYQSTLKSRLSISKDNSKSQVFLKMNSLRTDDTARYYCARDLPMDYWGLGTSVTVSS VL: DIQMTQSPSSLSASVGGRVTITCKASQDINKYIAWYQHKPGKGPSLLIHYTSTLQPGVPSRFSGSGSGRDYSFSISNLQPEDIATYYCLQYANLLTFGGGTKLEIKR | 1.5 µg/mL and 1.7 µg/mL |
| humanized anti-GPVI Fab VL1 with VH4 (Fab, V domains shown) VH: QVQLQESGPGLVAPSQSLSITCTVSGFSLTYYGVNWVRQPPSRGLEWLGMIWGDGSTDYQSTLKSRLSISKDNSKSQVFLKMNSLTTDDTARYYCARDLPMDYWGQGTSVTVSS VL: DIQMTQSPSSLSASVGGRVTITCKASQDINKYIAWYQHKPGKGPSLLIHYTSTLQPGVPSRFSGSGSGRDYSFSISNLQPEDIATYYCLQYANLLTFGGGTKLEIKR | 1.6 µg/mL and 1.8 µg/mL and 1.2 µg/mL |

Further lines, results first:

| IC50 for inhibition of collagen induced platelet aggregation (human platelet rich plasma) | Binder |
| --- | --- |
| 1.4 µg/mL and 2.4 µg/mL and 2.3 µg/mL | humanized anti-GPVI Fab VL2 with VH2 (Fab, V domains shown) VH: QVQLQESGPGLVAPSQSLSITCTVSGFSLTGYGVNWVRQPPSRGLEWLGMIWGDGSTDYQSTLKSRLSISKDNSKSQVFLKMNSLTTDDTARYYCARDLPMDYWGQGTSVTVSS VL: DIQMTQSPSSLSASVGGRVTITCKASQDINKYIAWYQHKPGKGPSLLIHYTSTLQPGVPSRFSGSGSGRDYSFSISNLQPEDIATYYCLQYAHLLTFGGGTKLEIKR |
| 1.9 µg/mL and 0.9 µg/mL and 2.1 µg/mL | humanized anti-GPVI Fab VL3 with VH2 (Fab, V domains shown) VH: QVQLQESGPGLVAPSQSLSITCTVSGFSLTGYGVNWVRQPPSRGLEWLGMIWGDGSTDYQSTLKSRLSISKDNSKSQVFLKMNSLTTDDTARYYCARDLPMDYWGQGTSVTVSS VL: DIQMTQSPSSLSASVGGRVTITCKASQDINKYIAWYQHKPGKGPSLLIHYTSTLQPGVPSRFSGSGSGRDYSFSISNLQPEDIATYYCLQYALLLTFGGGTKLEIKR |
| 1 µg/mL and 2.3 µg/mL and 2 µg/mL | humanized anti-GPVI Fab VL3 with VH4 (Fab, V domains shown) VH: QVQLQESGPGLVAPSQSLSITCTVSGFSLTYYGVNWVRQPPSRGLEWLGMIWGDGSTDYQSTLKSRLSISKDNSKSQVFLKMNSLTTDDTARYYCARDLPMDYWGQGTSVTVSS VL: DIQMTQSPSSLSASVGGRVTITCKASQDINKYIAWYQHKPGKGPSLLIHYTSTLQPGVPSRFSGSGSGRDYSFSISNLQPEDIATYYCLQYALLLTFGGGTKLEIKR |
| 1.9 µg/mL and 2.3 µg/mL and 1.2 µg/mL | humanized anti-GPVI Fab VL1 with VH5 (Fab, V domains shown) VH: QVQLQESGPGLVAPSQSLSITCTVSGFSLTGYGVNWVRQPPSRGLEWLGMIWGDGSTDYQSTLKSRLSISKDNSKSQVFLKMNSLTTDDTARYYCARDLPMDEWGQGTSVTVSS VL: DIQMTQSPSSLSASVGGRVTITCKASQDINKYIAWYQHKPGKGPSLLIHYTSTLQPGVPSRFSGSGSGRDYSFSISNLQPEDIATYYCLQYANLLTFGGGTKLEIKR |
